Results reported in patent US20170240883A1, “CYCLIC PEPTIDES EXPRESSED BY A GENETIC PACKAGE” (Miti Biosystems GmbH, priority 2014, published 2017).

T1: substrate peptide NH2-KPTTVKPPSDFEEWTINVC-COOH
T1 chain: KPTTVKPPSDFEEWTINVC

B1: Celf5ProcM (ProcM - 5-residue linker - C-terminal ProcA4.3 leader enzyme-leader fusion) (protein)
chain: MSEEQLKAFIAKVQADTSLQEQLKAEGADVVAIAKAAGFTITTEDLNSHRQNLTDDELEGVAGGSASGSGSGSAMESPSSWKTSWLAAIAPDEPHKFDRRLEWDELSEENFFAALNSEPASLEEDDPCFEEALQDALEALKAAWDLPLLPVDNNLNRPFVDVWWPIRCHSAESLRQSFVSDSAGLADEIFDQLADSLLDRLCALGDQVLWEAFNKERTPGTMLLAHLGAAGDGSGPPVREHYERFIQSHRRNGLAPLLKEFPVLGRLIGTVLSLWFQGSVEMLQRICADRTVLQQCFAIPCGHHLKTVKQGLSDPHRGGRAVAVLEFADPNSTANSSMHVVYKPKDMAVDAAYQATLADLNTHSDLSPLRTLAIHNGNGYGYMEHVVHHLCANDKELTNFYFNAGRLTALLHLLGCTDCHHENLIACGDQLLLIDTETLLEADLPDHISDASSTTAQPKPSSLQKQFQRSVLRSGLLPQWMFLGESKLAIDISALGMSPPNKPERIALGWLGFNSDGMMPGRVSQPVEIPTSLPVGIGEVNPFDRFLEDFCDGFSMQSEALIKLRNRWLDVNGVLAHFAGLPRRIVLRATRVYFTIQRQQLEPTALRSPLAQALKLEQLTRSFLLAESKPLHWPIFAAEVKQMQHLDIPFFTHLIDADALQLGGLEQELPGFIQTSGLAAAYERLRNLDTDEIAFQLRLIRGAVEARELHTTPESSPTLPPPATPEALMSSSAETSLEAAKRIAHRLLELAIRDSQGQVEWLGMDLGADGESFSFGPVGLSLYGGSIGIAHLLQRLQAQQVSLMDADAIQTAILQPLVGLVDQPSDDGRRRWWRDQPLGLSGCGGTLLALTLQGEQAMANSLLAAALPRFIEADQQLDLIGGCAGLIGSLVQLGTESALQLALRAGDHLIAQQNEEGAWSSSSSQPGLLGFSHGTAGYAAALAHLHAFSADERYRTAAAAALAYERARFNKDAGNWPDYRSIGRDSDSDEPSFMASWCHGAPGIALGRACLWGTALWDEECTKEIGIGLQTTAAVSSVSTDHLCCGSLGLMVLLEMLSAGPWPIDNQLRSHCQDVAFQYRLQALQRCSAEPIKLRCFGTKEGLLVLPGFFTGLSGMGLALLEDDPSRAVVSQLISAGLWPTESASGSGSGSAMSEEQLKAFIAKVQADTSLQEQLKAEGADVVAIAKAAGFTITTEDLNSHRQNLTDDELEGVAGG
B2: NelfMvdDGS10 (N-terminal MvdE leader - 10-residue linker - MvdD enzyme-leader fusion) (protein)
chain: MSKNVKVSAPKAVPFFARFLAEQAVEANNSNSAPSASGSGSGSGSTSGSGSGSAMTVLIFTFSNDNESIPLVVKAIEAKGEKAFRFDTDRFPTEVKLDIYSGDFEGGIVTDGEHKLDLSEVSSVWYRRMRYGAKLPDSMDQQFREASLKECRLTVRGLIASLPGFHFDPMINVDRANNKQLQLQIARQLGLLTPRTLTSNNPEAVKQFAQDCKEQGIVTKMLSQFAIYGENKEENVVFTSPVTDDDLDNLEGLSFCPMTFQENVPKALELRTIIVGKQVFTAAINSQQLDGATYDWRKEGRALHEKWQAYNLPEDIEKKLLQLTAYFGLNYGAIDIIVTPDGRHVFLEINPVGEFFWLELFAPYFPISQAIAEILLTPTNQKPF

Tests used:
Human Plasma Kallikrein = molecular target: T2, Human Plasma Kallikrein (Homo sapiens, UniProt P03952); assay: Phage selection of ProcM-modified SynLib1 library on biotinylated kallikrein (output titre); assay type: binding; conditions: 24 clones from R3 6.25 nM kallikrein output
T2 construct: purchased Molecular Innovations, Inc, USA
Procedure: Human Plasma Kallikrein (Molecular Innovations, Inc, USA) at 1.15 mg/ml (13 μM) solution in 4 mM acetate, 150 mM NaCl, pH 5.3 was biotinylated using NHS-PEG4-Biotin from the EZ-link micro-PEO4-biotinylation kit (Pierce Biotechnology, USA). 680 μl of water was added to the contents of the pre-weighed vial of biotinylation reagent to make a 5 mM solution. 1 μl of this solution was added to 100 μl of the kallikrein solution. This was incubated at RT for 1 hour prior to the separation of the biotinylated protein from the unreacted biotin, using a 2 ml Spin Desalting column (Pierce Biotechnology, USA). The volume of the kallikrein was made up to 350 μl with PBS (Formedium Ltd, UK) and was loaded onto the spin column which had been equilibrated with PBS (as per the manufacturer's instructions). When this solution had been absorbed into the column matrix, a further 50 μl of PBS was added on top and the column was spun in a centrifuge at 1000 g for 2 min. 395 μl of solution was collected, making the concentration of the biotinylated kallikrein about 3.25 μM.
150 μl of stock SynLib1 library (2.5e11 phage per μl) was added to 1850 μl of TE buffer, 2 μl 1 M TCEP (Melford Biolaboratories Ltd, UK) and incubated at RT for 20 minutes to reduce the peptides on the phage. […]

[1] = molecular target: T1, substrate peptide …

T2 sequence (P03952 20-638): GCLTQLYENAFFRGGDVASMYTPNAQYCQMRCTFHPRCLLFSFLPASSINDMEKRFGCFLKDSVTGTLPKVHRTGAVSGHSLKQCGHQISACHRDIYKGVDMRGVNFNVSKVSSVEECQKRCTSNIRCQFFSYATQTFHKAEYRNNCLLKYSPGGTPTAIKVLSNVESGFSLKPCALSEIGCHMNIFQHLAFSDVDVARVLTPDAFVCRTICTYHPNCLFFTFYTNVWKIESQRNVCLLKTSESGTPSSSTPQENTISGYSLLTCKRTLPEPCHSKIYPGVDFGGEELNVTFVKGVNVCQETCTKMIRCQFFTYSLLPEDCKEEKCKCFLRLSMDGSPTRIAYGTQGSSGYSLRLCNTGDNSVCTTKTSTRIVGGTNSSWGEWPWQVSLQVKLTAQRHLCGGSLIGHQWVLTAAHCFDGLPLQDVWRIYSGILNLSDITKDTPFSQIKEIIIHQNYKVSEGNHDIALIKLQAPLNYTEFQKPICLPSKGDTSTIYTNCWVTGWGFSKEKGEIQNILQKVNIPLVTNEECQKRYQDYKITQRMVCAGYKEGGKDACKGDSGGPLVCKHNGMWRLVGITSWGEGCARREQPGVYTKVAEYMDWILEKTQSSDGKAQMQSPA

Molecule | share of the clones that were sequenced (Human Plasma Kallikrein) [%] | dehydration of the peptide, LC-ESI mass spectrometry [1]
AACKGPSPTPNNC [clone 24] | 12.5 | 
B1 |  | one portion of the used peptide P2 was found showing triple dehydration with a m/z value of 1069.022
B2 |  | one portion of the used peptide P2 was found showing triple dehydration with a m/z value of 1069.022
